Measured values published in US7288256B1, “T cell epitopes of the major allergens from dermatophagoides (house dust mite)” (Merck Patent GmbH, priority 1991, dated 2007).
Blank lines part the entries; values can stand above or below the molecule they belong to. Residues, ends and D or L forms follow the SMILES beside them.

Columns and labels:
[1] = pH-solubility profile of candidate peptides (HPLC of filtrate); format: physicochemical; settings: at a pH in the pH range of pH 6 to pH 8; 50 mM sodium phosphate; about 22° C., 24 hours
Procedure: Stock solution A: 0.66 g […] of monobasic sodium phosphate monohydrate U.S.P. and 50 mg EDTA disodium dihydrate, U.S.P. were dissolved in 100 mL of WFI. The solution was filtered through a 0.2 micron filter
Stock solution B: 0.71 g […] of dibasic sodium phosphate U.S.P. were disolved in 100 ml WFI. The solution was filtered through a 0.2 micron filter.
Dispersions A and B were sonicated for 2 minutes for good homogeneity. A small volume was pipetted from each dispersion into a labeled eppendoff vial according to the following volume ratio:
The resultant solutions/suspensions were stored in the dark at about 22° C.±2 for 24 hours without agitation. The solutions were filtered and filtrates were analyzed for pH and peptide concentration.

[2] = pH-stability profile of candidate peptides (percent degradant peak area by HPLC); settings: 3, 2 and 1 mg/ml per peptide; 24 hours at about 5° C. and about 22° C.; common window within pH 6 to pH 8
Procedure: The concentration of filtered peptide solutions was determined by HPLC analysis. In this experiment, the solubility of peptide at each pH is defined as the amount of peptide remaining in solution after filtration through a membrane filter having a 0.2 micrometer pore size. The extent of degradation of peptides was estimated by calculating the percent of total degradant peak area over the total peak area.

human IgE = assay: Direct binding ELISA of IgE to mite allergen proteins and peptides (Examples XIII, XV)
Procedure: Corning assay plates (#25882-96) were coated with 5 μg/ml of each coating antigen listed in FIGS. 19, 20 and 21 at […] and incubated overnight at 4° C. The coating antigens were removed and the wells are blocked with 0.5% gelatin in PBS, 300 μl/well for 2 hours at room temperature. […] Louis, Mo.) and 100 μl/well a\was added and incubated overnight at 4° C. (plasma dilutions were tested in duplicate). The second antibody (biotinylated goat anti-Human IgE, 1:1000, Kirkegaard & Perry Laboratories Inc, Gaithersburg, Md.), was added at 100 μl/well for one hour at room temperature. This solution was removed and streptavidin-HRPO, 1:10000, (Southern Biotechnology Associates, Inc., Birmingham, Ala.) was then added at 100 μl/well for one hour at room temperature (all wells are washed three times with PBS-Tween between each incubation step). TMB Membrane Peroxidase Substrate system (Kirkegaard & Perry Laboratories) was freshly miced, and added at […]. The color was allowed to develop for 2-5 minutes. The reaction was stopped by the addition of […] of 1M phosphoric acid. Plates were read on a Microplate IL310 Autoreader (Biotech Instruments, Winooski, Vt.) with a 450 nm filter. The absorbance levels of duplicate wells were averaged. The order of coating antigens listed vertically in these figure legends corresponds in […] from left to right to the coating antigens listed for each histogram.

[3] = system: PBMC from mite-allergic patient; assay: Primary PBMC proliferation (3H-thymidine) to Der p I/Der p II proteins and peptides, Example IV; format: cell-based, human; settings: for CPM ± S.D.: 7 days culture; for S.I.: CPM with antigen / CPM medium only
Procedure: Peripheral blood mononuclear cells (PBMC) were purified by Ficoll-Hypaque centrifugation of a peripheral blood specimen from mite-allergic patient and were assayed for proliferation in response to various antigens, i.e., affinity-purified Der p I, affinity purified […], various Der p I and Der p II peptides. For assay, 5×10^4 PBMC were cultured in triplicate microwells for 7 days at 37° C. in the presence of various concentrations of antigen in 200 μl RPMI-1640 containing 5% human AB serum. Each well then received 1 μCi tritiated thymidine for 16 hours. The counts incorporated were collected onto glass fiber filters and processed for liquid scintillation counting. […] The CPM+/− standard deviation are shown. The stimulation index of each response (S.I.) is the ratio of the ^3H-thymidine CPM incorporated by the cells in response to antigen divided by the ^3H-thymidine CPM incorporated by cells in medium only. […] Thus, these peptides contain Der p I or Der p II T cell epitopes recognized by T cells from this particular allergic patient.

[4] = pooled human plasma from 20 mite skin test positive patients, coating antigen 5 μg/ml, FIGS. 19-21
[5] = plasma from 19 mite-allergic patients and a pool of 18 additional patients, Example XV

Molecule: CC[C@H](C)[C@H](NC(=O)[C@H](C)NC(=O)[C@H](CS)NC(=O)[C@H](C)NC(=O)[C@H](CC(C)C)NC(=O)[C@@H](NC(=O)CNC(=O)[C@H](CC(=O)O)NC(=O)[C@H](CC(=O)O)NC(=O)CNC(=O)[C@H](CCSC)NC(=O)[C@@H](NC(=O)[C@H](CCCCN)NC(=O)[C@@H](NC(=O)[C@@H](NC(=O)[C@H](CCC(=O)O)NC(=O)[C@H](CCC(=O)O)NC(=O)[C@@H](N)CC(=O)O)[C@@H](C)O)C(C)C)C(C)C)C(C)C)C(=O)N[C@@H](C)C(=O)N[C@H](C(=O)N[C@@H](Cc1c[nH]cn1)C(=O)N[C@@H](C)C(=O)N[C@@H](CCCCN)C(=O)N[C@H](C(=O)N[C@@H](CCCNC(=N)N)C(=O)N[C@@H](CC(=O)O)C(=O)N[C@@H](CCC(=O)O)C(=O)N[C@@H](CCC(=O)O)C(=O)O)[C@@H](C)CC)[C@@H](C)O [DP II-25.15] (H-DEETVKVMGDDGVLACAIATHAKIRDEE-OH; N-terminus and C-terminus assumed)
- solubility thermodynamic at 24 h [1]: > 3000 µg/mL
- solution stability in equal concentration combination [2]: acceptable solution stability

- IgE binding in direct ELISA (human IgE; [4]): binding
B1: biochemically purified Der f II: Group II protein allergen of Dermatophagoides farinae, immunoaffinity purified native form (protein)
chain: DQVDVKDCANNEIKKVMVDGCHGSDPCIIHRGKPFTLEALFDANQNTKTAKTEIKASLDGLEIDVPGIDTNACHFMKCPLVKGQQYDAKYTWNVPKIAPKSENVVVTVKLVGDNGVLACAIATHAKIRD

- IgE binding in direct ELISA (human IgE; [4]): good binding
B2: rDer p II: recombinant Der p II expressed in E. coli as His6 fusion (protein)
chain: MGHHHHHHEFDQVDVKDCANHEIKKVLVPGCHGSEPCIIHRGKPFQLEAVFEANQNTKTAKIEIKASIDGLEVDVPGIDPNACHYMKCPLVKGQQYDIKYTWNVPKIAPKSENVVVTVKVMGDDGVLACAIATHAKIRD

- IgE binding in direct ELISA (human IgE; [4]): binding
B3: recombinant Der f II: recombinant Der f II expressed in E. coli as His6 fusion (protein)
chain: MGHHHHHHEFDQVDVKDCANNEIKKVMVDGCHGSDPCIIHRGKPFTLEALFDANQNTKTAKTEIKASLDGLEIDVPGIDTNACHFMKCPLVKGQQYDAKYTWNVPKIAPKSENVVVTVKLVGDNGVLACAIATHAKIRD

- IgE binding in direct ELISA (human IgE; [4]): no detectable binding
B4: recombinant Der f I: recombinant Der f I expressed in E. coli as His6 fusion (protein)
chain: MGHHHHHHEFTSACRINSVNVPSELDLRSLRTVTPIRMQGGCGSCWAFSGVAATESAYLAYRNTSLDLSEQELVDCASQHGCHGDTIPRGIEYIQQNGVVEERSYPYVAREQRCRRPNSQHYGISNYCQIYPPDVKQIREALTQTHTAIAVIIGIKDLRAFQHYDGRTIIQHDNGYQPNYHAVNIVGYGSTQGDDYWIVRNSWDTTWGDSGYGYFQAGNNLMMIEQYPYVVIM

- IgE binding in direct ELISA (human IgE; [5]): All samples did contain IgE
B5: Der p I: Group I protein allergen of Dermatophagoides pteronyssinus, immunoaffinity purified native form (protein)
chain: TNACSINGNAPAEIDLRQMRTVTPIRMQGGCGSCWAFSGVAATESAYLAHRNQSLDLAEQELVDCASQHGCHGDTIPRGIEYIQHNGVVQESYYRYVAREQSCRRPNAQRFGISNYCQIYPPNANKIREALAQTHSAIAVIIGIKDLDAFRHYDGRTIIQRDNGYQPNYHAVNIVGYSNAQGVDYWIVRNSWDTNWGDNGYGYFAANIDLMMIEEYPYVVIL
- CPM ± S.D. ([3]; antigen 10 μg/ml): 920 ± 15 CPM
- S.I. ([3]; antigen 10 μg/ml): 0.9
- CPM ± S.D. ([3]; antigen 30 μg/ml): 2122 ± 93 CPM
- S.I. ([3]; antigen 30 μg/ml): 2.0
- CPM ± S.D. ([3]; antigen 100 μg/ml): 1492 ± 13 CPM
- S.I. ([3]; antigen 100 μg/ml): 1.4

- IgE binding in direct ELISA (human IgE; [5]): All samples did contain IgE
- IgE binding in direct ELISA (human IgE; [4]): good binding
B6: Der p II: Group II protein allergen of Dermatophagoides pteronyssinus, immunoaffinity purified native form (protein)
chain: DQVDVKDCANHEIKKVLVPGCHGSEPCIIHRGKPFQLEAVFEANQNTKTAKIEIKASIDGLEVDVPGIDPNACHYMKCPLVKGQQYDIKYTWNVPKIAPKSENVVVTVKVMGDDGVLACAIATHAKIRD
- CPM ± S.D. ([3]; antigen 10 μg/ml): 1113 ± 35 CPM
- S.I. ([3]; antigen 10 μg/ml): 1.0
- CPM ± S.D. ([3]; antigen 30 μg/ml): 2104 ± 43 CPM
- S.I. ([3]; antigen 30 μg/ml): 2.0
- CPM ± S.D. ([3]; antigen 100 μg/ml): 1057 ± 27 CPM
- S.I. ([3]; antigen 100 μg/ml): 1.0

- IgE binding in direct ELISA (human IgE; [4]): binding
B7: biochemically purified Der f I: Group I protein allergen of Dermatophagoides farinae, immunoaffinity purified native form (protein)
chain: TSACRINSVNVPSELDLRSLRTVTPIRMQGGCGSCWAFSGVAATESAYLAYRNTSLDLSEQELVDCASQHGCHGDTIPRGIEYIQQNGVVEERSYPYVAREQRCRRPNSQHYGISNYCQIYPPDVKQIREALTQTHTAIAVIIGIKDLRAFQHYDGRTIIQHDNGYQPNYHAVNIVGYGSTQGDDYWIVRNSWDTTWGDSGYGYFQAGNNLMMIEQYPYVVIM
